Reference: patent publication US20230071765A1, “COMPOSITIONS HAVING THIOREDOXIN ACTIVITY AND RELATED METHODS” (ORPRO THERAPEUTICS, INC., priority 2020, published 2023)

Assay: SEC-HPLC percent free monomer in solution
Assay type: physicochemical
Protocol: Functional assays 1. Reduction state of ORP100S was quantified using DTNB which reacts with free SH groups resulting in a yellow color change at 412 nm. Fifty microliters of 2.5 mM rhTrx was added to a 96-well plate, followed by 175 microliters of sample buffer and 25 microliters of 6 mM DTNB. After reactions were initiated by the addition of DTNB, change in kinetic absorbance at 412 nm due to DTNB reduction was monitored spectrophotometrically at 30° C. ORP100S concentration was determined by A280 (Nanodrop) using the extinction coefficient of human Trx-1 (7,000). The actual concentrations of free sulfhydryl groups were calculated based on the absorbance at 412 nm and the extinction coefficient of DTNB (14,150) in order to determine the reduction state as percentage of free sulfhydryl. […] 2. Percent of free monomer ORP100S in solution was determined using SEC. Samples were analyzed on a BioBasic S-300 250×4.6 column (Thermo Scientific) run on an Agilent 1100 HPLC system. The SEC-HPLC mobile phase buffer consisted of 40 mM ammonium acetate (pH 5.5), 2 mM EDTA and 450 mM NaCl. Low pH minimized dimerization while the 450 mM NaCl concentration improved resolution. The flow rate was 0.35 mL/min and absorbance was monitored at 280 nm. The length of each run was 20 minutes. The ORP100S monomer percentage was determined by integration of the area under the peak of the monomeric fraction divided by the total area under the curve of the chromatogram. 3. Disulfide bond reduction activity of ORP100S was quantified by assaying the reduction state of a small protein (human insulin) which in its heterodimeric form contains two intermolecular and one intramolecular disulfide, all three of which are known to be suitable thioredoxin substrates. Insulin reduction has classically been used to quantify thioredoxin activity by absorbance change following addition of NADPH and TrxR (Holmgren A., 1979, Thioredoxin catalyzes the reduction of insulin disulfides by dithiothreitol and dihydrolipoamide, J Biol Chem 254:9627-32). Such an approach is not suitable for monothiol C35S thioredoxins ORP-100 and ORP100S due to 1) the lack of cycling resulting from stoichiometric covalent linkage to the disulfide bond substrate and 2) the inability of NADPH and TrxR to reduce Cys32 of the oxidized monothiol Trx active site. Consequently, a new assay was developed based on the use of reverse-phase (RP) HPLC to monitor the rate of conversion of disulfide-bonded insulin heterodimers to monomeric forms. The two chains of human insulin have a total of six Cys residues which form three disulfide bonds in its mature structure. When ORP100S in the reduced form is incubated with dimeric insulin it reacts with these disulfide bonds to disrupt them, simultaneously forming covalent linkages to the ORP100S Cys32. […] The ORP100S samples were incubated with 10 mg/mL insulin for various time points (0-90 min) and the reactions were stopped by addition of iodacetic acid (IA) and trifluoroacetic acid (TFA). Relative activity at each time point was determined from changes in the area under the insulin heterodimer peak following separation over RP-HPLC (Agilent 1100) using an Intrada WP-RP 50×3 (Imtakt) column. Buffer A was 0.1% TFA and Buffer B was 0.1% TFA in acetonitrile. The gradient was […] in 5 min followed by 30 to 60% B in 45 min, then 60 to 80% B for an additional 5 min. The flow rate was 0.2 mL/min and absorbance was measured at 280 nm. In order to evaluate the change in the intact insulin molecule a time 0 baseline was first established using 1 M IA and 0.1% TFA without the addition of ORP100S. The area under the intact insulin heterodimer peak was then determined and set as equivalent to 100%. After the reaction with ORP100S the area of the intact insulin peak (corresponding to retention time) was measured. The percent reduction in intact insulin was then calculated from the decrease in the area following reduction divided by the area at time 0 multiplied by 100.

[1] = 70 mg/mL in PBS, 25° C., red fraction removed
[2] = 80 mg/mL in PBS, 25° C., red fraction removed
[3] = 90 mg/mL in PBS, 25° C., red fraction removed
[4] = 100 mg/mL in PBS, 25° C., red fraction removed
[5] = 110 mg/mL in PBS, 25° C., red fraction removed

B1: ORP100S: thioredoxin with monothiol active site, Cys35 and non-active Cys 62, 69 and 73 substituted with serine (SEQ ID NO:29) (protein)
chain: MVKQIESKTAFQEALDAAGDKLVVVDFSATWCGPSKMIKPFFHSLSEKYSNVIFLEVDVDDSQDVASESEVKSMPTFQFFKKGQKVGEFSGANKEKLEATINELV
modifications: synthetic peptide motif
% monomer (232 hrs) [1]: 93% | % monomer (Time 0) [1]: 93% | % monomer (232 hrs) [2]: 93% | % monomer (Time 0) [2]: 94% | % monomer (232 hrs) [3]: 92% | % monomer (Time 0) [3]: 94% | % monomer (232 hrs) [4]: 93% | % monomer (Time 0) [4]: 95% | % monomer (232 hrs) [5]: 92% | % monomer (Time 0) [5]: 95% | SEC % monomer (Ox:Red 0:100 mixture): 89% | SEC % monomer (Ox:Red 25:75 mixture): 70% | SEC % monomer (Ox:Red 50:50 mixture): 52% | SEC % monomer (Ox:Red 75:25 mixture): 36% | SEC % monomer (Ox:Red 100:0 mixture): 22% | decrease in percent monomer (time 0 to 232 hours, 25° C., PBS, 70-110 mg/ml, red fraction removed): 2%
